Data on 4 sequences can be found in patent US20190134153A1, “IMMUNOMODULATORY EFFECT OF INHALED KINASE INHIBITOR PEPTIDES IN LUNG” (MOERAE MATRIX, INC., priority 2017, published 2019).

Among the targets are CDK5/p25(h) (Homo sapiens, UniProt Q00535); MLK1(h) (Homo sapiens, UniProt P80192); SIK(h) (Homo sapiens, UniProt P57059).
Common to all, as to assay: Kinase Profiling Assay
Common to all, as to assay type: biochemical
What all share (conditions): 100 μM

For a further assay, the target named is T1, CaMKIV(h) (Homo sapiens, UniProt Q16566).
T1 sequence (Q16566 1-473): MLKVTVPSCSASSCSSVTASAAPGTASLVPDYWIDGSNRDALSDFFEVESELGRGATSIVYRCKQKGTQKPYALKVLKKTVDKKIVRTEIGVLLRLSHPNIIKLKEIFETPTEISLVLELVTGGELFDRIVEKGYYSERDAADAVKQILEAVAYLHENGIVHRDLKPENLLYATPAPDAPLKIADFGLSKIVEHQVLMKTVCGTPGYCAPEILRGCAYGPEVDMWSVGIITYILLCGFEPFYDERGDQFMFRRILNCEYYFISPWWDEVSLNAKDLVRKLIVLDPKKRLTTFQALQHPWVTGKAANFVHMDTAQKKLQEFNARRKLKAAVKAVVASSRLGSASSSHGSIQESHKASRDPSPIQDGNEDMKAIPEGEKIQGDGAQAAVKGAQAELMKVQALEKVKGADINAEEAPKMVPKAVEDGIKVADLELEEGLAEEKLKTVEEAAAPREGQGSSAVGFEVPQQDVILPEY

The target of the next assay is T2, DMPK(h) (Homo sapiens, UniProt Q09013).
T2 sequence (Q09013 1-629): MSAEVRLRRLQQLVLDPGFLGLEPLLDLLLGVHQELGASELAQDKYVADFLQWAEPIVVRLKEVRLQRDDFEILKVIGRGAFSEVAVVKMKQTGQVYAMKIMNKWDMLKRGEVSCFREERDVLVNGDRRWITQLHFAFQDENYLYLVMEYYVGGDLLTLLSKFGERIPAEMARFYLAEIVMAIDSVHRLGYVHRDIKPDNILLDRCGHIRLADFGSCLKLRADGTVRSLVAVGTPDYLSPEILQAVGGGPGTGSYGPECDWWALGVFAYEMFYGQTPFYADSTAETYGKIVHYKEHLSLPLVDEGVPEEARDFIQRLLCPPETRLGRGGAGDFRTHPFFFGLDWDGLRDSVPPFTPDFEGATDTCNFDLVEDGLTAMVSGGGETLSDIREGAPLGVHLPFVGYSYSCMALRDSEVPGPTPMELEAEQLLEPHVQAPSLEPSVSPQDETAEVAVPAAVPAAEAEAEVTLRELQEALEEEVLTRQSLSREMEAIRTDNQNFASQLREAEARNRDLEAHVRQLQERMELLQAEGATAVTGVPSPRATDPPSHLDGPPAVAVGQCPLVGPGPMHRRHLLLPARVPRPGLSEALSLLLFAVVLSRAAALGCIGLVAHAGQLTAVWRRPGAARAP

The next assay addresses T3, PKG1β(h) (Homo sapiens, UniProt Q13976).
T3 sequence (Q13976 1-686 isoform Q13976-2): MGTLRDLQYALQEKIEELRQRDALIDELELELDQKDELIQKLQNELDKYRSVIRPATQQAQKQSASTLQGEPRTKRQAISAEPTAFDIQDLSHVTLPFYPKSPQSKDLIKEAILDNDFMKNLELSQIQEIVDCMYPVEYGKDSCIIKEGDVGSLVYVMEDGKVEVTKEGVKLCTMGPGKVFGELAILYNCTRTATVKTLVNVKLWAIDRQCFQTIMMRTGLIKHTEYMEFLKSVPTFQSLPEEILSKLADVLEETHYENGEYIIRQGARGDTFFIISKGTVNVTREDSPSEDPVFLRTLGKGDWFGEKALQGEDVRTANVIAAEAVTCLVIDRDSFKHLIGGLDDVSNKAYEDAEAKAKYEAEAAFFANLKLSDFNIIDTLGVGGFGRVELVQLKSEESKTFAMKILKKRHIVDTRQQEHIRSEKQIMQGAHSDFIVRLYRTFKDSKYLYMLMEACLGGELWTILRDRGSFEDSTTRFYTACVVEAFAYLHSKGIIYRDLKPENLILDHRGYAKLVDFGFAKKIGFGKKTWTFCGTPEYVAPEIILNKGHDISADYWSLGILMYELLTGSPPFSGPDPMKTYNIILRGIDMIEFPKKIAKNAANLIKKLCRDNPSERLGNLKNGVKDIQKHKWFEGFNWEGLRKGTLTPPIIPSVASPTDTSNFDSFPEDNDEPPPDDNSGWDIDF

For the next assay, the target named is T4, TAO1(h) (Homo sapiens, UniProt Q7L7X3).
T4 sequence (Q7L7X3 1-1001): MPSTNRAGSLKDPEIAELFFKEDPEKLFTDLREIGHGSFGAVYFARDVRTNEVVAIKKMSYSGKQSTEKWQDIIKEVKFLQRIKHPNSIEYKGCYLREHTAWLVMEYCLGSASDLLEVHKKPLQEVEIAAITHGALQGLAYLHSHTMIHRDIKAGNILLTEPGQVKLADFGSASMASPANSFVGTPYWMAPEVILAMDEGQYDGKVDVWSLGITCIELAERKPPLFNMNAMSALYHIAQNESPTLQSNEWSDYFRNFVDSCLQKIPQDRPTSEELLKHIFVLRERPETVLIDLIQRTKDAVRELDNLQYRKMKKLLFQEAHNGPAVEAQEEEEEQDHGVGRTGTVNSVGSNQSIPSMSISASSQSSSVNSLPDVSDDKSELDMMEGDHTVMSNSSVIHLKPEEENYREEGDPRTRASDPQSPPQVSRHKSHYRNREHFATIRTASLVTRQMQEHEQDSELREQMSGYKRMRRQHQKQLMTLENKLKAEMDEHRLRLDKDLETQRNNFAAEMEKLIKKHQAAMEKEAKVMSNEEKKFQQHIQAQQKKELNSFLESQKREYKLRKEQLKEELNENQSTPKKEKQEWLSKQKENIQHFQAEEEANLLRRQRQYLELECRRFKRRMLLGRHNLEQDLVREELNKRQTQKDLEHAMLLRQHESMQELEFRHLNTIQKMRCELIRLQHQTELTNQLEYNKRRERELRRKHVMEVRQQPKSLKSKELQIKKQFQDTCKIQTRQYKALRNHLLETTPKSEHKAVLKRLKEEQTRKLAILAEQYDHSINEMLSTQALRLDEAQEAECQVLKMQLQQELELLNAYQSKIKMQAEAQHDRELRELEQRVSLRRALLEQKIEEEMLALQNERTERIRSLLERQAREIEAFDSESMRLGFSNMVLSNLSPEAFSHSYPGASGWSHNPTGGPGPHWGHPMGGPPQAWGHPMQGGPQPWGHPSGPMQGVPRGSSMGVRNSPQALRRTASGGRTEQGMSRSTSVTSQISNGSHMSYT

Chain of SIK(h) (P57059 whole entry): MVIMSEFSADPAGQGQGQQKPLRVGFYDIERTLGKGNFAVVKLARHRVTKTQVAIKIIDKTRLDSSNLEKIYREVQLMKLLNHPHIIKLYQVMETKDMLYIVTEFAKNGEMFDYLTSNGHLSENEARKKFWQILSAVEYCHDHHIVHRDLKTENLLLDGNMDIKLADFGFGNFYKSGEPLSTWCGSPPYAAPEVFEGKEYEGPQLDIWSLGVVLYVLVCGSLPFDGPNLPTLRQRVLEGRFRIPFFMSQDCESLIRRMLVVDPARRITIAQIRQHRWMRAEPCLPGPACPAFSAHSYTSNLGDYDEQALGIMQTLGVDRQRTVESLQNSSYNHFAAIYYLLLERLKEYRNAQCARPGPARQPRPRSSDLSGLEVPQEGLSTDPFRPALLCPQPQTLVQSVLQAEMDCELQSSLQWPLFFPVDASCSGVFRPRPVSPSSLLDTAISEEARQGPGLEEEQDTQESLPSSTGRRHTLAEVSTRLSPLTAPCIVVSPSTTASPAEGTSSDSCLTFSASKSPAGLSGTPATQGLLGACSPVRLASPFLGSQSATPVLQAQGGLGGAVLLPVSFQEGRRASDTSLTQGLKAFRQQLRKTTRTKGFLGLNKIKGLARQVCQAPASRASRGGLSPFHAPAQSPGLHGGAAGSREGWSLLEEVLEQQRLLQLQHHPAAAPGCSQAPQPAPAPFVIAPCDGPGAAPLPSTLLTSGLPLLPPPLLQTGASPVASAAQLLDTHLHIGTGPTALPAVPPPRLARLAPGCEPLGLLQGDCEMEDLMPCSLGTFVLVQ
Chain of CDK5/p25(h) (Q00535 whole entry): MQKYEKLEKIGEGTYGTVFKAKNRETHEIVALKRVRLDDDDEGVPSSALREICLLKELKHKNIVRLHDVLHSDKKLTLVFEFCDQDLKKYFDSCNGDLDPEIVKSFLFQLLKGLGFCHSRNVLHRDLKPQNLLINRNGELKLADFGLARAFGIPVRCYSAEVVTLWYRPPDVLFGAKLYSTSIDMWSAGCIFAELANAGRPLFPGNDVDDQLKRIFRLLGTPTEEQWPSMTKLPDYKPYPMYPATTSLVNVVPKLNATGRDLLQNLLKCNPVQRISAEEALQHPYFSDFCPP
Chain of CDK5/p25(h) (Q15078 99-307 partner limits assumed): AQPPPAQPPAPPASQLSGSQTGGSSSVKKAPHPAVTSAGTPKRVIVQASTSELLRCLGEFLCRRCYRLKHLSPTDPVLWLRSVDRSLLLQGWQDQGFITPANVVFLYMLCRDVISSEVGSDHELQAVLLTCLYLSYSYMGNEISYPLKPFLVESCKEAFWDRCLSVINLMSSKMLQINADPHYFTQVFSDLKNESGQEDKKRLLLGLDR
Chain of MLK1(h) (P80192 whole entry): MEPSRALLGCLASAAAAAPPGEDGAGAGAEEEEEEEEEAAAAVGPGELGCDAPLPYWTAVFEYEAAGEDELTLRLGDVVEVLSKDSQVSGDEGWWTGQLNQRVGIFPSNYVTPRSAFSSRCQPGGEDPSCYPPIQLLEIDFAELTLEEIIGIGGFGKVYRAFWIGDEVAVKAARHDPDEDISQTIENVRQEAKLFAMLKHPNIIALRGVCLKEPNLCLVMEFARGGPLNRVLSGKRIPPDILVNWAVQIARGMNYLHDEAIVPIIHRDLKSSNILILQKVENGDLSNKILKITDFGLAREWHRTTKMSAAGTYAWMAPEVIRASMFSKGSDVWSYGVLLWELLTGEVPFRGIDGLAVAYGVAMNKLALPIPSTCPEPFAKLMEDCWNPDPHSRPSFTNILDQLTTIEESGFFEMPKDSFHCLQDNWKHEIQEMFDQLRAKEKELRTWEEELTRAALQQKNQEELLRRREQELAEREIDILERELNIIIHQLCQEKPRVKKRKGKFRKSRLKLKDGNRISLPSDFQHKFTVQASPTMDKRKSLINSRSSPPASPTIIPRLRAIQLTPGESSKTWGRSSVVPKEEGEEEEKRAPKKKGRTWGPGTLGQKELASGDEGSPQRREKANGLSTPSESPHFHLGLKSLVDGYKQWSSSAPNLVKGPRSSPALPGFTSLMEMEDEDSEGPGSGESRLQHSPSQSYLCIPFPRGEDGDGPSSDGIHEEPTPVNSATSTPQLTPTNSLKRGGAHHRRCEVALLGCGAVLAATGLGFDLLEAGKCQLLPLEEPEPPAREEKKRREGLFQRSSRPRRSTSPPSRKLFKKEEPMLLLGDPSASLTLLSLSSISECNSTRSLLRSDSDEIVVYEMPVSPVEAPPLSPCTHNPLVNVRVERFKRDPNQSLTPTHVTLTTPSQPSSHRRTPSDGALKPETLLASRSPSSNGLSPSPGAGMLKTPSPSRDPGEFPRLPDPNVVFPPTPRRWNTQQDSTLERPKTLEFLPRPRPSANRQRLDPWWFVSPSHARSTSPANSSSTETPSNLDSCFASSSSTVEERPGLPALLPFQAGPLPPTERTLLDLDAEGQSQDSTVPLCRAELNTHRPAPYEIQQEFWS

As for FAKLAARLYRKALARQLGVAA [MMI-0300], the “% activity” value with CaMKIV(h) came out at 17%; in the assay with CDK5/p25(h), 89%; in the assay with DMPK(h), 59%; with MLK1(h), 40%; with PKG1β(h), 50%; in the assay with SIK(h), 66%. Moreover, the “% activity” value with TAO1(h) came to 82%.
As for YARAAARQARAKALNRQLGVA [MMI-0200], the “% activity” value with CaMKIV(h) amounted to 71%; in the assay with CDK5/p25(h), 97%; with DMPK(h), 66%; with MLK1(h), 84%; with PKG1β(h), 57%.
As for KAFAKLAARLYRKALARQLGVAA [MMI-0400], the “% activity” value with CaMKIV(h) is on record as 18%; in the assay with CDK5/p25(h), 92%; with DMPK(h) it was 54%; in the assay with MLK1(h) it was 33%; with PKG1β(h), 53%; with SIK(h), 68%. Further, the “% activity” value with TAO1(h) came to 73%.
On to HRRIKAWLKKIKALARQLGVAA [MMI-0500], for which the “% activity” value with CaMKIV(h) is listed as −1%; with CDK5/p25(h), 66%; in the assay with DMPK(h), 12%; with MLK1(h), 43%; with PKG1β(h) it was 24%; with SIK(h) it was 40%. Also, the “% activity” value with TAO1(h) was found to be 24%.
